Assay [1] addresses "Bac-wt" human IL-23 (identical to elastikine human IL-23 in sequence, expressed in SF9 cells) (human) (UniProt P29460). Description: BIAcore SPR, mAb amine-coupled on CM5 chip, IL-23 in solution, 25 C.
In assay [2] the target is "N222Q" human IL-23 (elastikine sequence with Asn222 to Gln in the p40 subunit, expressed in SF9 cells) (human) (UniProt P29460). Described as above.

Residue numbers refer to the chain shown, from its start. Several values for one entry are separate records, joined by “and”; a condition that tells them apart may be missing. Equal entries are not always repeated.

Experimental findings from patent US20070048315A1 are described below.

B1: humanized anti-human IL-23p19 antibody hum7G10 (antibody, human IgG1, kappa, V domains shown)
VH: QVQLVQSGAEVKKPGASVKVSCKASGYTFTSNVMHWVRQAPGQGLEWMGYINPYNDGTKYNEKFKGRVTMTTDTSTSTAYMELRSLRSDDTAVYYCARNWDVAYWGQGTLVTVSS
VL: DIQMTQSPSSLSASVGDRVTITCRASQSISDYLHWYQQKPGKAPKLLIYYASQSISGVPSRFSGSGSGTDFTLTISSLQPEDFATYYCQNGHSFPFTFGQGTKVEIKR
Consider B1, for which the Kd is 10 nM in assay [1]; 0.3 nM and 1 nM in assay [2].

B2: humanized anti-human IL-23p19 antibody hum6H12 (antibody, human IgG1, kappa, V domains shown)
VH: B1 VH with T30N, S31R, N32Y, V33L, M34I, Y54N, D56A, K59N, V102Q
VL: B1 VL with A51T
Consider B2, for which the results for the Kd in assay [1] and in assay [2] were 5.1 nM and 0.5 nM, respectively.
